Data on two substances can be found in PMC5018249.

As usually defined, the stoichiometry N is the number of molecules, sites or subunits per partner or assembly.

In test [1] the target is BG505 SOSIP.D664 (HIV-1 strain BG505). Description: SEC-MALS + other: negative-stain electron microscopy; in-house purified BG505 SOSIP trimers, thawed and analysed. A general note: In gel filtration, larger molecules generally elute earlier.
The target in test [2] is BG505 SOSIP-GT3-PADRE (HIV-1 strain BG505). Put plainly: SEC-MALS; purified immunogen in solution; conditions not given.

Consider BG505 SOSIP.D664 (domain or fragment), for which the stoichiometry N in test [1] was determined as 3.

Regarding BG505 SOSIP-GT3-PADRE, in test [2], the stoichiometry N worked out at 3.
